From US20240018226A1 (PROTHENA BIOSCIENCES, published 2024) come the findings set out here.

For assay [1], the target named is T1, 3R2N-tau (Swiss-Prot P10636-5) (human, UniProt P10636 2-758).
T1 construct: The construct used in SPR is not described
The experiment in a line: surface plasmon resonance. For orientation: SPR reads the build-up and loss of mass on a sensor chip optically.

Assay [2] deals with T2, 4R2N-tau (Swiss-Prot P10636-8) (human, UniProt P10636 2-758).
T2 construct: The construct used in SPR is not described; also called 441 amino acid tau protein
The experiment in a line: surface plasmon resonance.

T2 sequence (P10636 other isoform, or with tags, fused parts or gaps limits assumed): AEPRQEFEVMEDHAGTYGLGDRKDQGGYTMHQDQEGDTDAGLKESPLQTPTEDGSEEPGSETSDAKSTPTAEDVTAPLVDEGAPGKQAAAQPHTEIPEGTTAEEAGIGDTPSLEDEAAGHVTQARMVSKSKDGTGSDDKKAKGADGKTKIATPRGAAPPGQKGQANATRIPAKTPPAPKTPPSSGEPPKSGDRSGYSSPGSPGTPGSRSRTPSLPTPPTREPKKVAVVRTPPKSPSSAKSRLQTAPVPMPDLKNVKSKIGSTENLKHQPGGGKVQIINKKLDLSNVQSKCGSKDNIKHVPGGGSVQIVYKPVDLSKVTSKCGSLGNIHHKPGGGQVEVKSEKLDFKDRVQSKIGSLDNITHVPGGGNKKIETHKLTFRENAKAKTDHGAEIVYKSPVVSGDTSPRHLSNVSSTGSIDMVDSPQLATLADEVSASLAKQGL
T1 sequence (P10636 other isoform, or with tags, fused parts or gaps limits assumed): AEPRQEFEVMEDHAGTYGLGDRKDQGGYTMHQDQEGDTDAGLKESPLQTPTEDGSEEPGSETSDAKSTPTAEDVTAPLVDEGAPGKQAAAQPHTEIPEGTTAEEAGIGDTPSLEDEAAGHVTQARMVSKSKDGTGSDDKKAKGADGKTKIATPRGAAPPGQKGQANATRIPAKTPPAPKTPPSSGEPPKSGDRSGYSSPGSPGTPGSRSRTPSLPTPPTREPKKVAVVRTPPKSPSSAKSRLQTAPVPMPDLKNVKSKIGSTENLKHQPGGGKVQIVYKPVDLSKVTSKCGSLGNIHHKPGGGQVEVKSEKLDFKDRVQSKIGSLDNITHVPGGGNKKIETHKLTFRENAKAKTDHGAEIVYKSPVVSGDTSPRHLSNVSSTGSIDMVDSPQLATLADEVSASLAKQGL

B1: hu3D6VHv1bA11/L2-DIM4 (antibody, human IgG1, kappa, V domains shown)
VH: EVQLVQSGAEVVKPGATVKISCKASGFNIKDYYLHWVRQRPGQGLEWIGWIDPENGDTVYDPKFQGRATITADTSTDTAYLQLGSLTSEDTAVYFCSTLDFWGQGTLVTVSS
VL: DVVMTQSPLSLPVTLGQPASISCKSSQSLLDSDGKTYLNWLQQRPGQSPRRLIYLVGKRDSGVPDRFSGSGSGTDFTLKISRVEAEDVGVYYCWQGTHFPYTFGGGTKLEIKR
notes: also called PRX005; humanized 3D6 variant
With B1, the results for the Kd in assay [1] and in assay [2] were 0.154 nM and 0.206 nM, respectively.

The term Kd denotes a measure of binding affinity in units of concentration.
